# Reference: the supplement of paper PMC9170038
# System: K4 kissing-loop RNA reporter
# Assay: apparent KD of K4 kissing-loop reporter; higher = weaker reporter binding
# Conditions: Eterna round: R107
# Method: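 RNA-MaP round R107: designed RNA switches with theophylline, tryptophan, arginine or FMN aptamers are transcribed on-chip within common flanks. They are titrated with a labelled K4 kissing-loop RNA reporter in RNA-MaP buffer (100 mM Tris pH 7.5, 80 mM KCl, 4 mM MgCl2), without ligand or with the indicated ligand. Median apparent KD per design.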
# [1] = input ligand: theophylline 20 uM
# [2] = input ligand: tryptophan 2.4 mM
# 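Also: bound reporter read as fluorescence of individual clusters on recovered sequencing chips by microscopy, with normalized cluster intensities fitted with a binding model.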
Sequence,apparent KD of K4 kissing-loop reporter (input ligand: FMN 200 uM) [nM],apparent KD of K4 kissing-loop reporter (input ligand: arginine 13.2 mM) [nM],apparent KD of K4 kissing-loop reporter (input ligand: none) [nM],apparent KD of K4 kissing-loop reporter [1] [nM],apparent KD of K4 kissing-loop reporter [2] [nM]
AAACUUGCAGUGAUGUUGCAAGUAGGUGAUACCAGCAUCGAAAGAUGCCCUUGGCAGCACCAUCACUGUAAGUAGGUGCUGUCAA [(H1)-(H2)-(T1)-(T2)-(H)'-(T)'_Design5],99.3,88.5,105,111,103
UAUUAAGUGACGGCCGCCACUAUGGUGAUUUAUUUGUUUGAGUGAUGUUUUGAUGUUUGAUUUUGUAGGACCGGGUUAUGUGUUA [ttttcmullin],969,641,735,752,597
UAGUCAUACAGAGGAUAUCGUAUGAGUGAUGUUCAUACGAUAUAAUCUAAUUGUAUAGAUGUUCGACGAGAAGGCUGUAUGACUA [FMN B Ex t1a],116,84.5,94.9,91.3,92.6
UGACUGGAUGGAAGGAGCGCUAAACUCCUAGUGAUGUUAGGGACAUGAGGCAAAGCCUUGAAGCAGGUAGGUCGCCAUCUAGUCU [FiskerMod 27 - Jieux - Same State - Arginine B],233,133,208,176,167
UAACUGCAGUGAUGUUGCAGAUGUCCUGACUAGGAUAUCAGGAAACUGAGAAGGAGUCCCUUCUACUGCAACAAGAAGGAGGACA [[K1]-[K2]-[F1]'-[F1]-[F2]-[F2]'-[K]'-[F]''_Design2],396,347,436,391,408
UUAGAGAUCUCAGGAUAUCAGUGAUGUUGGUUGCCAGAUCUGAGAUAGAAUUCUAUCUCAGAUCAAUGAGAAGGGAGAUCUCAUU [AK4 Exc FMN B],501,313,352,317,282
UGUAUUUCGGCGGCCGCCACUGACCAUAGCCUUCGAUGGCCAGUGAUGUUGGCCUCUGGCUCUAACAGGACCGGGCCGAAUUGCG [Usvediin],303,165,190,168,132
GCAUCCAUGGCAGGAUAUAGGUUCGUGGAGUGAUGUUCCAUAGCCCGAGUGAUGUUCGUUAUCCGCCUAGAAGGGCCGUGGAUGC [whbob_Ex_FMNB__2th214],248,184,235,192,212
AAGCAGUCUCUCGAAGCCAUCGAAGAUGGGCGAGGACCGGUACGGCCGCCACUCGGAGUGAUGUUCCGAAGACUGCAAAAUAAAA [MatMod 10 - Jieux - Exclusion - Tryptophan A],281,223,396,243,308
GCGCAUGUUAAAGGAUAUAGCAGGUGAUACAAGAAAGUGAGUGAUGUUUAUGUAGAUGAUGAUAUGUUAGAAGGUUAACAAACGC [abcdefghijklmno],922,624,809,867,564
UUUCUAUCGGGAAGGAGCGUGAAUGAUAAUGGAUAUAGUGAUGUUAUAUAUAAGAACGAAUCGCAGGUAGGUCGCCCGGAUGACU [SSArgB.R],346,357,323,389,169
AAGUAAUGUAUAGAUUAUAUACAUUAAACAGAGGAUAUGCAUUAUUGCAGAAGGCUGAAUGCAGUGAUGUUGCAAUAAUUAUUUA [JR_SSFMNA_Sub002],53.1,190,184,297,146
CAUAGGAAACUAUGUUUCUCUCUUACUGAAGGAGCGCGUGAAAACGCAGGUAGGUCGCAGAAUUUGAGAGUGAUGUUCUCAAUAA [Ex Arginine A K4 13],114,149,151,167,116
AAACUACGUGACGAUACCAGCUUACUCGGCAAGCCAGUGAUGUUGGUGAAAAGGAGUCAAAGCCCUUGGCAGCGUCGAAGGUUUG [Usandiat],257,215,252,129,255
GGCAUGGUGGCAGGAUAUCCUAAUAGAGUGAUGUUCUAGCCCUCGUAGGCGAAAGCCUACGAGGGCGGAGAAGGGCCACCAUGCC,263,384,697,835,431
GGAUGGUAGGCGGCCGCCACUAAAUGUGAACACAUACAAGCCAGUGAUGUUGGUAUGAUGGACAAUAGGACCGGGCCUAGAUAGA [Exclusion - Tryptophan B (Freestyle 7)],595,448,555,495,542

Sequence,apparent KD of K4 kissing-loop reporter (input ligand: FMN 200 uM) [nM],apparent KD of K4 kissing-loop reporter (input ligand: arginine 13.2 mM) [nM],apparent KD of K4 kissing-loop reporter (input ligand: none) [nM],apparent KD of K4 kissing-loop reporter [1] [nM],apparent KD of K4 kissing-loop reporter [2] [nM]
UCCUGCAAUCUGCCACGAAAGUGGGUUGAUACCAGAGUCGAAAGACUCCCUUGGCAGCGAGUGAUGUUCGUUGCAGGUGUUUAAA [MatMod 11 - Jieux - Exclusion - Theophylline A],197,172,186,217,174
CACAGAUCCUAAGGAUAUGGAGUGAUGUUCGCAAGUUCUUGGUGUGCAUUCAUCUGUCCUAUCAACCCAGAAGGUAGGAAGUCAC [theeternabot_exclusion_KL_FMN_B_1],607,516,550,993,604
GCUAUGGUAGGAAGGAGCGCUGCCUUGUUUUUACGAGUGAUGUUCGGAAGCAGGGUGUUAAAGCAGGUAGGUCGCCUACUAUAGC [Arginine B K4 23],191,121,160,172,155
AGACUACCACACUGUCAAUAGACAGUGAACUAGGAUAUGCUGAUAAGCAGAAGGAGUGAUGUUCCUAAUAAGGUAGUCAUAUAAU [FmnAX 15 #SwitchBubble #StaticStem #K4Early],590,482,558,637,503
GGAGAGGUCUUGUUUGGAUGUGAUUAAUGGCGAGGACCGGUACGGCCGCCACUCGGGUGAUGUUAGUGAUGUUGAUGUAGUGAUG [uyumullin],150,103,114,206,109
GCAUCAUGCUACGAUACCAGAAGUUCCCUUUAGUGUAGUGAUGUUGCAGAUAUUGCUUACUUCCCUUGGCAGCGUUUGACGGGUA [theeternabot_sameState_KL_Theo_B_35],256,205,220,335,155
GUAUGUUCGAAAGAACGUACAUCUUCGGAAGGAGCGCGUGAAAACGCAGGUAGGUCGCCGAAGUUAUUAGGUAGUGAUGUUACCU [Arginine A K4 8],128,99.1,101,109,114
AGCUGUGGCAGAAGGAGCGGCAGUUAUUCUGAUAGUACUCUGAGUGAUGUUCAGAACGACUGUCAGGUAGGUCGCUGUCACAGCU [#02 K4 Arginine B Exclusion],252,252,234,206,218
AAUUUACAUUAAUUAUUUAAAGGUUCAGAAGGAGCGUGAAUUAACACAGGUAGGUCGCUGAGCGAGUGAUGUUCGCUAUAUACUA [JR_ExcArginiA_Sub003],62.7,68.9,65.7,91.1,49.4
GAUAUAGUGAUGUUAUAUACUGAUAGACAACGAGGACCGGUACGGCCGCCACUCGAGAGGGUGAAAAUGGUGAUAAAAUAAUGAU [#03 K4 Tryptophan A Exclusion],349,271,381,322,274
GGAUAGGAUAGAGGAUAUGGUAGUGAUGUUACCAAACUGGUUAAACAUGUCAGAAAACUGGCAUGACCAGAAGGCUGUCCUAUCG [FmnBX 27 U9],102,63.4,71,70.5,69.8
UGUUAUGUAUCAGGAUAUUAGUGUUGUUUGUUUAUGUUAGUGAUGUUGAUAUUUGUUUUAUGUAUUUAAGAAGGGAUUGAGAUGU [kkplmullin],369,339,310,359,258
UCUGGUAUAUCUGAUACCAGAGUAUAGUAUCAAUUGAAUAUGGAGUGAUGUUCCAUACAACUCCCUUGGCAGCAGAUCUUCCUCU [Same State Theophylline B GF 23],145,206,188,193,124
GGACCUCAGUGAUGUUGAGGUAACACUGAUACCAGCGACUUAAUUCGCCCUUGGCAGCAGUCCACCGAGGUAUCUGAUUAGGUCU [#23 K4 Theophylline A Exclusion],211,220,216,287,190
GCCAGUGCGCGAAGGAGCGCCGUGACAGGUUACUGCCUUGGGCAGUGAUGUUGCUCAAUCUGGCAGGUAGGUCGCGUGCACUGGC,212,184,166,204,197
GCCGUAGAUUGAAGGAGCGCCGCACAUGUCCCGCUUAGUGUAGUGAUGUUACAGUGUCAGCGGCAGGUAGGUCGCAAUCUACGGC,85.8,183,225,123,218
